Assay results as given in patent US7132401B2, “Beta-secretase substrates and uses thereof” (Merck & Co., Inc., priority 2002, dated 2006).

Target: β-secretase (Homo sapiens, UniProt P56817)
Assay: β-secretase cleavage of peptide substrates and peptide libraries followed by LC/MS
Assay type: biochemical
Conditions: for Relative rates of hydrolysis: hydrolysis by β-secretase, Swedish mutant EVNLDAEF (SEQ ID NO: 257) = 1, each peptide 1 μM, pH 4.5, 37° C.; for rate of hydrolysis by β-secretase, times faster than the Swedish mutant sequence (SEQ ID NO: 257): relative to Swedish mutant APP sequence, peptides incubated simultaneously with β-secretase; for rate of cleavage (depletion of full length substrate) of P1′ peptide library components: P1′ peptide library treated with β-secretase, FIG. 2; for formation of C-terminal cleavage products from the P1′ peptide library: FIG. 3
Method: Following synthesis and purification, each of the eight peptide libraries was incubated with the enzyme β-secretase and the relative rates of cleavage of each individual peptide library component was followed with liquid chromatography/mass spectrometry (LC/MS) with analysis of both the depletion of the full length peptide substrate, as well as the formation of peptide cleavage fragments. The enzyme β-secretase was incubated at concentrations ranging from 5 to 50 nM at pH 4.5 with each of the peptide libraries and/or mixtures of synthetic peptide substrates.
The mixtures of substrates and enzyme were incubated in an Agillent Technology 1100 series liquid chromatograph with a temperature controlled autosampler. The temperature for all β-secretase enzymatic assays was held constant at 37° C. A 100 μl aliquot of each reaction mixture was injected onto a 1×50 mm C18 reverse phase 1c column (Metachem Technologies Inc., Torrance, Calif.) every two hours to monitor reaction progress. After injection, a highly optimized solvent gradient was delivered to the column to maximize resolving power for each of the substrate library components. […] After the LC/MS run, the data were processed by selected-ion chromatograms for each of the peptide substrate library components by extracting 0.5 Da mass windows surrounding the calculated mass values of each of the peptides.

β-secretase, sequence (P56817 46-501): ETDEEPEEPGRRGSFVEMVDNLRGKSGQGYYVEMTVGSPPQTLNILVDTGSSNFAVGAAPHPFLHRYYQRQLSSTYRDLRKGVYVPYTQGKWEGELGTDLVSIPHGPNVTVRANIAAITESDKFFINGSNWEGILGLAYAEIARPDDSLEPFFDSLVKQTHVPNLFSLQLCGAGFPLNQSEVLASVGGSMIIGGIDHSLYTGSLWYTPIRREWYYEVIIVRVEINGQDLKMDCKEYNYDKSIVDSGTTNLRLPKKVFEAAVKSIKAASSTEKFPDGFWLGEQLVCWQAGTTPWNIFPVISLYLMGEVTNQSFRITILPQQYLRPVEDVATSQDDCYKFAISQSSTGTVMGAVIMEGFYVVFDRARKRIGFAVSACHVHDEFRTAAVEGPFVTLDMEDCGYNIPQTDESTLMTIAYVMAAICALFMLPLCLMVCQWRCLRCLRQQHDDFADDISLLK

Row | Relative rates of hydrolysis | rate of hydrolysis by β-secretase, times faster than the Swedish mutant sequence (SEQ ID NO: 257) | rate of cleavage (depletion of full length substrate) of P1′ peptide library components | Substance | formation of C-terminal cleavage products from the P1′ peptide library
1 | 17 | – | – | EVNFAAEF (Beta-Secretase Cleavage Site) | –
2 | 30 | roughly 30 times | – | EVNFAVEF (Beta-Secretase Cleavage Site) | –
3 | 17 | – | – | EVNFEAEF (Beta-Secretase Cleavage Site) | –
4 | 60 | 60 times | – | EVNFEVEF (Beta-Secretase Cleavage Site) | –
5 | 1 | – | intermediate | EVNLDAEF (Beta-Secretase Cleavage Site) [8-mer of Swedish mutant APP around the β-secretase cleavage site, reference compound] | less conducive to β-secretase hydrolysis than either Glu or Ala
6 | – | – | most rapidly hydrolyzed | P1′=Glu: P1′ peptide library component: Swedish mutant APP 8-mer with Glu at P1′ (EVNLEAEF) | more rapid and comparable rates of formation
7 | – | – | not cleaved | P1′=Gly: P1′ peptide library component: Swedish mutant APP 8-mer with Gly at P1′ (EVNLGAEF) | –
8 | – | – | not cleaved | P1′=Pro: P1′ peptide library component: Swedish mutant APP 8-mer with Pro at P1′ (EVNLPAEF) | –
